Here are results for 2 substances from patent publication US20250333445A1, “NOVEL POLYPEPTIDES” (Oncopeptides Innovation 1 AB, priority 2022, published 2025).

A value given as a limit tells only on which side of the number the result lay.

In the experiment the target is Human BCMA-rFc (BCMA Protein aa 1-54, Human, Recombinant (ECD, rabbit Fc Tag), cat. no. 10620-H15H, Sino Biological) (human) (UniProt Q02223). Briefly: SPR, 200 nM hCD16a over immobilised hBCMA-rFc without engager (background control).

For the substance “hCD16a F158 (Cat. no. CDA-H5220, Acro Biosystems) (from UniProt P08637 17-208) (receptor)”, the response signal is less than 10 RU. In the case of “hCD16a V158 (Cat. no. CD8-H52H4, Acro Biosystems) (from UniProt P08637 17-208) (receptor)”, the response signal was less than 10 RU.
